Where two headings read alike, the source gives them in different places.

The target in experiment [1] is chimeric leptin receptor-EPO receptor (OBR-EPOR) on 32D-OBECA cells (human; murine) (UniProt P48357). The experiment in a line: cell-based or functional assay.
Experiment [2] has as its target human leptin receptor (short form), membrane-bound, from stably transfected CHO cells (human) (UniProt P48357). The experiment in a line: 125I-Leptin competition on membranes of CHO cells expressing human leptin receptor; IC50 vs WT.
Experiment [3] has the same target. The description is as above. This is another data set of the same source.

Regarding “rHu-Leptin 1-146, site 100d (PWAS > ANAT) (ligand)”, the Bioactivity Rel. to WT. in experiment [1] is 0.26 rel. to WT. For the same substance, in experiment [2], the Receptor binding Rel. to WT. was 1.45 rel. to WT.

With “rHu-Leptin 1-146, site 141 (DLS > NLT) (ligand)”, in experiment [1], the Bioactivity Rel. to WT. is 1 rel. to WT. Also, the Receptor binding Rel. to WT. in experiment [2] was 0.3 rel. to WT.

For the substance “rHu-Leptin 1-146, site 116 (ASG > NST) (ligand)”, the Bioactivity Rel. to WT. in experiment [1] is 0.56 rel. to WT. Moreover, the Receptor binding Rel. to WT. in experiment [2] was 0.9 rel. to WT.

Turning to “rHu-Leptin 1-146, site 103 (GLE > NLT) (ligand)”, in experiment [1], the Bioactivity Rel. to WT. is 0.73 rel. to WT. In addition, the Receptor binding Rel. to WT. in experiment [2] was 1 rel. to WT.

“rHu-Leptin 1-146, site 70 (SRN > NRT) (ligand)”: the Bioactivity Rel. to WT. in experiment [1] is 1 rel. to WT. In addition, the Receptor binding Rel. to WT. in experiment [2] is 1 rel. to WT.

In the case of “rHu-Leptin 1-146, site 25 (SHT > NHT) (ligand)”, the Bioactivity Rel. to WT. in experiment [1] was 0.02 rel. to WT. Further, the Receptor binding Rel. to WT. in experiment [2] was 0.4 rel. to WT.

In the case of “rHu-Leptin 1-146, site 100c (WAS > NAT) (ligand)”, the Bioactivity Rel. to WT. in experiment [1] was 0.81 rel. to WT. Further, the Receptor binding Rel. to WT. in experiment [2] was 0.45 rel. to WT.

As to “rHu-Leptin 1-146, site 119 (YST > NST) (ligand)”, the Bioactivity Rel. to WT. in experiment [1] is 0.02 rel. to WT. The Receptor binding Rel. to WT. in experiment [2] was 0.8 rel. to WT.

As to “rHu-Leptin 1-146, site 29 (SVS > NVT) (ligand)”, the Bioactivity Rel. to WT. in experiment [1] was 0.5 rel. to WT. Also, the Receptor binding Rel. to WT. in experiment [2] is 0.6 rel. to WT.

Regarding “rHu-Leptin 1-146, site 43 (PGL > NGT) (ligand)”, the Bioactivity Rel. to WT. in experiment [1] is 0.014 rel. to WT. In addition, the Receptor binding Rel. to WT. in experiment [2] is 1.5 rel. to WT.

Regarding “rHu-Leptin 1-146, site 35 (KVT > NVT) (ligand)”, the Bioactivity Rel. to WT. in experiment [1] is 0.13 rel. to WT. Moreover, in experiment [2], the Receptor binding Rel. to WT. was 0.5 rel. to WT.

Turning to “rHu-Leptin 1-146, site 23a (DIS > NIT) (ligand)”, in experiment [1], the Bio-activity Rel. to WT. is 0.53 rel. to WT and the Bioactivity Rel. to WT. is 0.53 rel. to WT.

“rHu-Leptin 1-146, site 45 (CHP > NHT) (ligand)”: the Bioactivity Rel. to WT. in experiment [1] is 0.08 rel. to WT. For the same substance, the Receptor binding Rel. to WT. in experiment [2] is 0.5 rel. to WT.

Turning to “rHu-Leptin 1-146, site 69 (PSR > NST) (ligand)”, in experiment [1], the Bio-activity Rel. to WT. was 1.1 rel. to WT and the Bioactivity Rel. to WT. was 1.1 rel. to WT. In experiment [2], the Receptor binding Rel. to WT. was 0.6 rel. to WT.

With “rHu-Leptin 1-146, site 92 (FSK > NST) (ligand)”, in experiment [1], the Bio-activity Rel. to WT. is 0.8 rel. to WT and the Bioactivity Rel. to WT. was 0.67 rel. to WT. Moreover, the Receptor binding Rel. to WT. in experiment [2] is 1.6 rel. to WT.

For “rHu-Leptin 1-146, site 67 (SMP > NMT) (ligand)”, the Bioactivity Rel. to WT. in experiment [1] is 0.52 rel. to WT. Besides, the Receptor binding Rel. to WT. in experiment [2] is 0.8 rel. to WT.

Turning to “rHu-Leptin 1-146, site 101 (ASG > NST) (ligand)”, the Bioactivity Rel. to WT. in experiment [1] is 0.33 rel. to WT. Moreover, the Receptor binding Rel. to WT. in experiment [2] is 0.7 rel. to WT.

As to “rHu-Leptin 1-146, site 48 (ILT > NLT) (ligand)”, in experiment [1], the Bio-activity Rel. to WT. is 0.53 rel. to WT and the Bioactivity Rel. to WT. is 0.53 rel. to WT. The Receptor binding Rel. to WT. in experiment [2] is 0.8 rel. to WT.

As to “rHu-Leptin 1-146, site 47 (PIL > NIT) (ligand)”, in experiment [1], the Bio-activity Rel. to WT. was 0.84 rel. to WT and the Bioactivity Rel. to WT. is 0.84 rel. to WT. Moreover, the Receptor binding Rel. to WT. in experiment [2] is 0.66 rel. to WT.

On to “rHu-Leptin 1-146, site 100e (WAS > TAS) (ligand)”, for which the Bioactivity Rel. to WT. in experiment [1] is 0.83 rel. to WT. Further, in experiment [2], the Receptor binding Rel. to WT. is > 1.9 rel. to WT.

In the case of “rHu-Leptin 1-146, site 8 (DDT > NDT) (ligand)”, in experiment [1], the Bioactivity Rel. to WT. was 1.2 rel. to WT. Further, in experiment [2], the Receptor binding Rel. to WT. is 1.2 rel. to WT.

With rHu-Leptin 1-145 (ligand), the Bio activity Rel. to WT. in experiment [1] is 0.14 rel. to WT. Besides, the Receptor binding Rel. to WT. in experiment [2] is 1.3 rel. to WT.

As for “rHu-Leptin 1-146, site 72 (NVI > NVT) (ligand)”, the Bioactivity Rel. to WT. in experiment [1] was 0.26 rel. to WT. Besides, the Receptor binding Rel. to WT. in experiment [2] is 1.7 rel. to WT.

Take “rHu-Leptin 1-146, site 4 (QKV > NKV) (ligand)”: in experiment [1], the Bioactivity Rel. to WT. is 0.73 rel. to WT. Further, in experiment [2], the Receptor binding Rel. to WT. is 1.7 rel. to WT.

As for “rHu-Leptin 1-146, site 100b (WAS > NAS) (ligand)”, the Bioactivity Rel. to WT. in experiment [1] is 1.46 rel. to WT. Also, the Receptor binding Rel. to WT. in experiment [2] is 0.7 rel. to WT.

Turning to “rHu-Leptin 1-146, site 97 (HLP > NLT) (ligand)”, in experiment [1], the Bioactivity Rel. to WT. was 1.1 rel. to WT.

With “rHu-Leptin 1-146, site 33 (KQK > NQT) (ligand)”, the Bioactivity Rel. to WT. in experiment [1] is 0.04 rel. to WT. The Receptor binding Rel. to WT. in experiment [2] was 0.9 rel. to WT.

For the substance “rHu-Leptin 1-146, site 117 (SGY > NGT) (ligand)”, in experiment [1], the Bioactivity Rel. to WT. was 0.01 rel. to WT. Moreover, the Receptor binding Rel. to WT. in experiment [2] was 1.9 rel. to WT.

Consider “rHu-Leptin 1-146, site 93 (SKS > NKT) (ligand)”, for which the Bioactivity Rel. to WT. in experiment [1] was 1.1 rel. to WT.

On to “rHu-Leptin 1-146, site 115 (EAS > NAT) (ligand)”, for which the Bioactivity Rel. to WT. in experiment [1] is 0.006 rel. to WT. Besides, in experiment [2], the Receptor binding Rel. to WT. was 0.9 rel. to WT.

Turning to “rHu-Leptin 1-146, site 118 (GYS > NYT) (ligand)”, the Bioactivity Rel. to WT. in experiment [1] was 3.8 rel. to WT. The Receptor binding Rel. to WT. in experiment [2] was 0.8 rel. to WT.

For “rHu-Leptin 1-146, site 68 (MPS > NAT) (ligand)”, the Bioactivity Rel. to WT. in experiment [1] was 0.036 rel. to WT. In addition, the Receptor binding Rel. to WT. in experiment [2] was 0.8 rel. to WT.

For “rHu-Leptin 1-146, site 5 (KVQ > NVT) (ligand)”, the Bioactivity Rel. to WT. in experiment [1] was 0.05 rel. to WT. Also, the Receptor binding Rel. to WT. in experiment [2] is 1.7 rel. to WT.

For the substance “rHu-Leptin 1-146, site 37 (TGL > NGT) (ligand)”, the Bioactivity Rel. to WT. in experiment [1] was 0.043 rel. to WT. Moreover, the Receptor binding Rel. to WT. in experiment [2] is 0.4 rel. to WT.

“rHu-Leptin 1-146, site 73 (VIQ > NIT) (ligand)”: the Bioactivity Rel. to WT. in experiment [1] was 0.01 rel. to WT. In addition, the Receptor binding Rel. to WT. in experiment [2] is 8 rel. to WT.

“rHu-Leptin 1-146, site 46 (HPI > NPT) (ligand)”: in experiment [1], the Bioactivity Rel. to WT. is 0.27 rel. to WT. Moreover, the Receptor binding Rel. to WT. in experiment [2] was 0.11 rel. to WT.

As for “rHu-Leptin 1-146, site 120 (STE > NTT) (ligand)”, in experiment [1], the Bioactivity Rel. to WT. was 0.01 rel. to WT. Also, the Receptor binding Rel. to WT. in experiment [2] was 0.7 rel. to WT.

In the case of “rHu-Leptin 1-146, site 77 (SND > NNT), expressed with the erythropoietin signal peptide (ligand)”, in experiment [1], the Bioactivity Rel. to WT. is < 0.02 rel. to WT. The Receptor binding Rel. to WT. in experiment [2] is 2.2 rel. to WT.

Take “rHu-Leptin 1-146, site 26 (HTQ > NTT) (ligand)”: the Bioactivity Rel. to WT. in experiment [1] is 0.01 rel. to WT. The Receptor binding Rel. to WT. in experiment [2] was 1.5 rel. to WT.

On to “rHu-Leptin 1-146 expressed with the erythropoietin signal peptide and human albumin prosequence (ligand)”, for which, in experiment [1], the Bio activity Rel. to WT. was 1.8 rel. to WT. Further, in experiment [2], the Receptor binding Rel. to WT. is 3.5 rel. to WT.

As for “rHu-Leptin 1-145 expressed with the erythropoietin signal peptide (ligand)”, the Bio activity Rel. to WT. in experiment [1] was 0.36 rel. to WT. In experiment [2], the Receptor binding Rel. to WT. is 0.6 rel. to WT.

As to “rHu-Leptin 1-146, site 99 (PWA > NWT) (ligand)”, in experiment [1], the Bioactivity Rel. to WT. is 0.5 rel. to WT. For the same substance, in experiment [2], the Receptor binding Rel. to WT. is 0.9 rel. to WT.

Take “rHu-Leptin 1-146, site 27 (TQS > NQT) (ligand)”: in experiment [1], the Bioactivity Rel. to WT. is 0.13 rel. to WT. In addition, the Receptor binding Rel. to WT. in experiment [2] is 0.7 rel. to WT.

With rHu-Leptin 1-146 (wild type) (ligand), in experiment [1], the Bio activity Rel. to WT. is 1 rel. to WT and the Bioactivity Rel. to WT. was 1 rel. to WT. In addition, in experiment [2], the Receptor binding Rel. to WT. was 1 rel. to WT.

“rHu-Leptin 1-146, site 100a (PWAS > SNAT) (ligand)”: the Bioactivity Rel. to WT. in experiment [1] was 0.9 rel. to WT. The Receptor binding Rel. to WT. in experiment [2] is 0.6 rel. to WT.

For the substance “rHu-Leptin 1-146, site 7 (QDD > NDT) (ligand)”, in experiment [1], the Bioactivity Rel. to WT. was 0.04 rel. to WT. Besides, the Receptor binding Rel. to WT. in experiment [2] was 1.25 rel. to WT.

Take “rHu-Leptin 1-146, site 71 (RNV > NNT) (ligand)”: the Bioactivity Rel. to WT. in experiment [1] is 0.3 rel. to WT. Besides, the Receptor binding Rel. to WT. in experiment [2] was 1.9 rel. to WT.

In the case of “rHu-Leptin 1-146, site 23a (DIS > NIT), erythropoietin signal peptide (ligand)”, the Bio-activity Rel. to WT. in experiment [1] was 0.79 rel. to WT. Moreover, the Receptor binding Rel. to WT. in experiment [2] is 0.5 rel. to WT.

In the case of “rHu-Leptin 1-146, site 102 (SGL > NGT) (ligand)”, in experiment [1], the Bio-activity Rel. to WT. was 0.66 rel. to WT and the Bioactivity Rel. to WT. is 0.85 rel. to WT. In addition, in experiment [2], the Receptor binding Rel. to WT. was 0.6 rel. to WT. Also, in experiment [3], the Receptor binding Rel. to WT. is 0.5 rel. to WT.

Take “rHu-Leptin 1-146 expressed with the native human erythropoietin signal peptide (ligand)”: the Bio activity Rel. to WT. in experiment [1] is 0.95 rel. to WT. For the same substance, the Receptor binding Rel. to WT. in experiment [2] is 1 rel. to WT.

With “rHu-Leptin 1-146, site 44 (GLH > NLT) (ligand)”, the Bioactivity Rel. to WT. in experiment [1] was 0.78 rel. to WT. The Receptor binding Rel. to WT. in experiment [2] was 2 rel. to WT.

For “rHu-Leptin 1-146, site 38 (GLD > NLT) (ligand)”, the Bioactivity Rel. to WT. in experiment [1] was 0.036 rel. to WT. Also, the Receptor binding Rel. to WT. in experiment [2] was 0.2 rel. to WT.
